The source of these data is patent US20210032339A1 (AMPHIVENA THERAPEUTICS, published 2021).

A word on the Kd: it is the constant that tells how readily two partners part at equilibrium. Read a high Kd as weaker binding.

In experiment [1] the target is T1, human CD33 (human, UniProt P20138 18-259). The experiment is described as follows: cell-based or functional assay.
Experiment [2] concerns the target T1, human CD33. The experiment is described as follows: cell-based or functional assay. This is another data set of the same source.
The target in experiment [3] is T1, human CD33. The experiment is described as follows: cell-based or functional assay. This is another data set of the same source.
The target of experiment [4] is T1, human CD33. The experiment is described as follows: cell-based or functional assay. This is another data set of the same source.
Experiment [5] has as its target T1, human CD33. As to the kind of experiment: cell-based or functional assay. This is another data set of the same source.
Experiment [6] addresses T2, human CD3 (human, UniProt P07766 23-207).
T2 construct: whole, on cells; Multi-chain complex on cells; also called hu CD3
As to the kind of experiment: flow cytometry, T cells.

Experiment [7] has as its target T1, human CD33. As to the kind of experiment: flow cytometry, KG-1 cells. The method, then:
(§1) Cells were incubated with 100 μL of serial dilutions of CD33/CD3 tandem diabodies. After washing three times with FACS buffer the cells were incubated with 0.1 mL of 10 μg/mL mouse monoclonal anti-His antibody in the same buffer for 45 min on ice. After a second washing cycle, the cells were incubated with 0.1 mL of 15 μg/mL FITC-conjugated goat anti-mouse IgG antibodies under the same conditions as before. As a control, cells were incubated with the anti-His IgG followed by the FITC-conjugated goat anti-mouse IgG antibodies without anti-CD33 tandem diabodies. […] The fluorescence of 1×10⁴ living cells was measured using a Beckman-Coulter FC500 MPL flow cytometer using the MXP software (Beckman-Coulter, Krefeld, Germany) or a Millipore Guava EasyCyte flow cytometer using the Incyte software (Merck Millipore, Schwalbach, Germany). Mean fluorescence intensities of the cell samples were calculated using CXP software (Beckman-Coulter, Krefeld, Germany) or Incyte software (Merck Millipore, Schwalbach, Germany). After subtracting the fluorescence intensity values of the cells stained with the secondary and tertiary reagents alone the values were used for calculation of the KD values with the equation for one-site binding (hyperbola) of the GraphPad Prism (version 6.00 for Windows, GraphPad Software, La Jolla Calif. USA). […]

The target in experiment [8] is T1, human CD33. The experiment is described as follows: flow cytometry, HL-60 cells. Here is the method: as §1
(In general: In flow cytometry, cells or beads pass a laser one at a time.)

In experiment [9] the target is T1, human CD33. The experiment is described as follows: flow cytometry, U-937 cells. Here is the method:
as §1

For experiment [10], the target named is T1, human CD33. As to the kind of experiment: flow cytometry, HL-60 cells. The source holds these as a separate data set.
Experiment [11] has as its target T2, human CD3. As to the kind of experiment: flow cytometry, human T-cells.

Where a chain is given by its changes, count along the chain named. Values joined by “and” are separate entries in the source; they are usually repeats but may differ in a detail not shown here. Equal values may be shown once.

T2 sequence (P07766 23-207): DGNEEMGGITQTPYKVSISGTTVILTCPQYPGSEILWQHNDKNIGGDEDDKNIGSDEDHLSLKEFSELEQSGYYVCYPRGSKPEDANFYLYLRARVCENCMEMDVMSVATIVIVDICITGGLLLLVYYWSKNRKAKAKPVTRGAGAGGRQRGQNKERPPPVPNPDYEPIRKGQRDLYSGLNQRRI
T1 sequence (P20138 18-259): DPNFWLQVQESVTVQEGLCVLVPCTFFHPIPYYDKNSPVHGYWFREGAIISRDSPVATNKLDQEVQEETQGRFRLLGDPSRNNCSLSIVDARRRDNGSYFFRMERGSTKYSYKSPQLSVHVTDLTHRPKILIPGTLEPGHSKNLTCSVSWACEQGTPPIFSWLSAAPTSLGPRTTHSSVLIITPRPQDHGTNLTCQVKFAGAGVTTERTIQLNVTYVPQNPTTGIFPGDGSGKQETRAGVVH

B1: CD33/CD3 tandem diabody 19 (bispecific antibody)
chain: DIQMTQSPSSLSASVGDRVTITCRSSTGAVTTSNYANWVQQKPGKAPKALIGGTNKRAPGVPSRFSGSLIGDKATLTISSLQPEDFATYYCALWYSNLWVFGQGTKVEIKGGSGGSQVQLVQSGAEVKKPGASVKVSCKASGYTFTSYYMHWVRQAPGQGLEWMGIINPSGGSTSYAQKFQGRVTMTRDTSTSTVYMELSSLRSEDTAVYYCARDVVPAAIDYYGMDVWGQGTTVTVSSGGSGQSVLTQPPSASGTPGQRVTISCSGSSSNIGSNTVNWYQQLPGTAPKLLIYSDNQRPSGVPDRFSGSKSGSSASLAISGLQSDDEADYYCATWDDSLNGAVFGGGTKLTVLGGSGGSEVQLVESGGGLVQPGGSLRLSCAASGFTFSTYAMNWVRQAPGKGLEWVGRIRSKYNNYATYYADSVKDRFTISRDDSKNSLYLQMNSLKTEDTAVYYCARHGNFGNSYVSYFAYWGQGTLVTVSSAAAGSHHHHHH
In the case of B1, the “lysis of KG-1 cells, IC50” value in experiment [1] was approximately 5 pM.

B2: CD33/CD3 tandem diabody 12 (bispecific antibody)
chain: DIQMTQSPSSLSASVGDRVTITCRSSTGAVTTSNYANWVQQKPGKAPKALIGGTNKRAPGVPSRFSGSLIGDKATLTISSLQPEDFATYYCALWYSNLWVFGQGTKVEIKGGSGGSQVQLVQSGAEVKKPGASVKVSCKASGYTFTSYDINWVRQAPGQGLEWMGWMNPNSGNTGFAQKFQGRVTMTRDTSTSTVYMELSSLRSEDTAVYYCARDRAVTDYYYGMDVWGQGTLVTVSSGGSGQSVLTQPPSASGTPGQRVTISCSGSRSNIGSNTVNWYQQLPGTAPKLLIYGNNQRPSGVPDRFSGSKSGTSASLAISGLQSEDEADYYCATWDDSLIGWVFGGGTKLTVLGGSGGSEVQLVESGGGLVQPGGSLRLSCAASGFTFSTYAMNWVRQAPGKGLEWVGRIRSKYNNYATYYADSVKDRFTISRDDSKNSLYLQMNSLKTEDTAVYYCARHGNFGNSYVSYFAYWGQGTLVTVSSAAAGSHHHHHH
With B2, in [1], the “lysis of KG-1 cells, IC50” value was approximately 0.01 pM. In [2], the “EC50 mean, cytotoxicity on BV-173” value came out at 1.4 pM; the “EC50 mean, cytotoxicity on CHO-CD33” value stood at 11.8 pM; the “EC50 mean, cytotoxicity on HL-60” value came out at 1.4 pM; the “EC50 mean, cytotoxicity on K562” value turned out to be 4.5 pM. In addition, in experiment [2], the “EC50 mean, cytotoxicity on KASUMI-1” value worked out at 1.3 pM; the “EC50 mean, cytotoxicity on KG-1” value came out at 1 pM; the “EC50 mean, cytotoxicity on RPMI-8226” value was found to be 14 pM; the “EC50 mean, cytotoxicity on THP-1” value stood at 1.9 pM. The “EC50 mean, cytotoxicity on U-937” value in experiment [2] is 0.9 pM.

B3: CD33/CD3 tandem diabody 16 (bispecific antibody)
chain: B2 chain with V218N, Y222S, Y223L
For B3, the “lysis of KG-1 cells, IC50” value in experiment [1] was ~0.5 pM and 5 pM. Besides, in experiment [2], the “EC50 mean, cytotoxicity on BV-173” value worked out at 3.2 pM; the “EC50 mean, cytotoxicity on CHO-CD33” value is 24 pM; the “EC50 mean, cytotoxicity on HL-60” value turned out to be 1.6 pM; the “EC50 mean, cytotoxicity on K562” value worked out at 4.8 pM. In addition, in experiment [2], the “EC50 mean, cytotoxicity on KASUMI-1” value came to 2.4 pM; the “EC50 mean, cytotoxicity on KG-1” value came out at 1.9 pM; the “EC50 mean, cytotoxicity on RPMI-8226” value was found to be 2.8 pM; the “EC50 mean, cytotoxicity on THP-1” value turned out to be 6 pM. Besides, the “EC50 mean, cytotoxicity on U-937” value in experiment [2] is 1.3 pM. Besides, in experiment [3], the “EC50, calcein-release cytotoxicity on HL-60, 30 min” value is 4.8 pM; the “EC50, calcein-release cytotoxicity on HL-60, 60 min” value was 2.5 pM; the “EC50, calcein-release cytotoxicity on HL-60, 120 min” value was 1.6 pM; the “EC50, calcein-release cytotoxicity on HL-60, 180 min” value is 1.6 pM. Moreover, in experiment [3], the “EC50, calcein-release cytotoxicity on HL-60, 240 min” value was 1.5 pM and the “EC50, calcein-release cytotoxicity on HL-60, 300 min” value is 1.6 pM.

B4: CD33/CD3 tandem diabody 14 (bispecific antibody)
chain: B2 chain with V218N, Y221F, Y222S, T312S
Turning to B4, the “EC50 on HL-60 (cytotoxicity)” value in experiment [4] turned out to be 1.6 pM. For the same molecule, in [5], the “EC50, cytotoxicity on HL-60” value was 1.6 pM and 168 pg/mL; the “EC50, cytotoxicity on KG-1” value is 2.6 pM and 273 pg/mL; the “EC50, cytotoxicity on U-937” value was 3.6 pM and 378 pg/mL; the “EC50, cytotoxicity, mean of HL-60, U-937, KG-1” value is 2.6 pM and 273 pg/mL.

B5: CD33/CD3 tandem diabody 22 (bispecific antibody)
chain: DIQMTQSPSSLSASVGDRVTITCRSSTGAVTTSNYANWVQQKPGKAPKALIGGTNKRAPGVPSRFSGSLIGDKATLTISSLQPEDFATYYCALWYSNLWVFGQGTKVEIKGGSGGSQVQLVQSGAEVKKPGSSVKVSCKASGGTFSSYGISWVRQAPGQGLEWMGGIIPIFGSAHYAQKFQGRVTITADESTSTAYMELSSLRSEDTAVYYCAREYYYDSSEWAFDIWGQGTLVTVSSGGSGQSVLTQPPSASGTPGQRVTISCSGSSSNIGSNTVKWYQQLPGTAPKLLIYSNNQRSSGVPDRFSGSKSGTSASLAISGLQSEDEADYYCAAWDDSLNGYVFGGGTKLTVLGGSGGSEVQLVESGGGLVQPGGSLRLSCAASGFTFSTYAMNWVRQAPGKGLEWVGRIRSKYNNYATYYADSVKDRFTISRDDSKNSLYLQMNSLKTEDTAVYYCARHGNFGNSYVSYFAYWGQGTLVTVSSAAAGSHHHHHH
notes: Non-covalent homodimer; also called TandAb 22
With B5, the “EC50 on HL-60 (cytotoxicity)” value in experiment [4] was 3.2 pM. Moreover, the Kd in [6] amounted to 4.1 nM; in [7] it was 2 nM; in [8] it was 0.7 nM; in [9], 8.6 nM; in experiment [10] it was 0.7 nM; in experiment [11] it was 4.1 nM.

B6: CD33/CD3 tandem diabody 23 (bispecific antibody)
chain: B5 chain with A49G, D72T, K73D, A74F, Y469W
notes: Non-covalent homodimer; also called TandAb 23
As for B6, in [4], the “EC50 on HL-60 (cytotoxicity)” value amounted to 2.8 pM. Also, the Kd in [6] worked out at 97.2 nM; in experiment [7] it was 1 nM; in [8], 0.4 nM; in [9], 5.1 nM; in experiment [10] it was 0.4 nM; in experiment [11] it was 97.2 nM.
